Data as given in paper PMC7772773, “HTR6 and SSTR3 ciliary targeting relies on both IC3 loops and C-terminal tails” (Life Science Alliance, 2020).

What was measured:
[1] = molecular target: T1, CD8α (aa 1–206)-(HTR6-CT)-BioID2-HA ( | mouse, UniProt P01732 22-206; Q9R1C8 326-440); experiment: proximity labelling; BioID2 proximity biotinylation in HEK293T cells cotransfected with EGFP-TEV-Stag-TULP3 (or S-tagged TULP3-NTD or -CTD) and CD8α(1–206)-(IC3 or CT of a GPCR)-BioID2-HA; 50 μM biotin for the last 16 h; TULP3 purified from lysate by tandem purification (GFP-Trap, TEV digestion, S-protein agarose); its biotinylation detected with NeutrAvidin-HRP, relative to total TULP3 and normalised to the β2AR …; conditions: partners not purified
T1 construct: signal peptide in the construct; CD8α, extracellular and transmembrane regions, aa 1–206; serotonin receptor 6 (HTR6), mouse, C-terminal tail (HTR6-CT, aa 326–440); also called HTR6-CT(WT); wild-type HTR6-CT; source: HEK293T, cotransfected, in cells; not shown: BioID2, C-terminal, kept; HA, C-terminal, kept
T1 sequence (P01732 22-206, tags or fused parts left off): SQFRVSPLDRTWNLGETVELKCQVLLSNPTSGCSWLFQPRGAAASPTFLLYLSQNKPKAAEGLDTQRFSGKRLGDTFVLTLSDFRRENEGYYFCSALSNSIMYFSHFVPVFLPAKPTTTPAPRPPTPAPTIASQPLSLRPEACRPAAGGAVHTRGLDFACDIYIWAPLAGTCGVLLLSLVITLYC

[2] = molecular target: T2, CD8α (aa 1–206)-(SSTR3-CT)-BioID2-HA ( | mouse, UniProt P01732 22-206; P30935 326-428); experiment: as above; conditions: partners not purified
T2 construct: signal peptide in the construct; CD8α, extracellular and transmembrane regions, aa 1–206; somatostatin receptor 3 (SSTR3), mouse, C-terminal tail (SSTR3-CT, aa 326–428); source: HEK293T, cotransfected, in cells; not shown: BioID2, C-terminal, kept; HA, C-terminal, kept
T2 sequence (P01732 22-206, tags or fused parts left off): as above

- fold biotinylated TULP3 over β2AR-CT control [1]: 4 fold
- fold biotinylated TULP3 over β2AR-CT control [2]: 20 fold
B1: EGFP-TEV-Stag-TULP3 (natural protein, UniProt O75386 1-442, looked up)
chain: MEASRCRLSPSGDSVFHEEMMKMRQAKLDYQRLLLEKRQRKKRLEPFMVQPNPEARLRRAKPRASDEQTPLVNCHTPHSNVILHGIDGPAAVLKPDEVHAPSVSSSVVEEDAENTVDTASKPGLQERLQKHDISESVNFDEETDGISQSACLERPNSASSQNSTDTGTSGSATAAQPADNLLGDIDDLEDFVYSPAPQGVTVRCRIIRDKRGMDRGLFPTYYMYLEKEENQKIFLLAARKRKKSKTANYLISIDPVDLSREGESYVGKLRSNLMGTKFTVYDRGICPMKGRGLVGAAHTRQELAAISYETNVLGFKGPRKMSVIIPGMTLNHKQIPYQPQNNHDSLLSRWQNRTMENLVELHNKAPVWNSDTQSYVLNFRGRVTQASVKNFQIVHKNDPDYIVMQFGRVADDVFTLDYNYPLCAVQAFGIGLSSFDSKLACE
notes: TULP3, ciliary trafficking adapter; the printed limit of its C-terminal domain (aa 184–442) points to a protein of 442 aa; A TEV site lies between EGFP and the S-tag; EGFP is cut off only after the first immunoprecipitation, that is after the labelling in cells; also called S-tagged TULP3; not shown: EGFP, N-terminal, kept; S-tag, N-terminal, kept
